Measurements: US20190055314A1 (ADAGENE, published 2019)

Assays:
Test in all cases: flow cytometry, HEK293F cells expressing the receptor [Cont.]
[1] = biological target: T1, CD27 overexpressed on HEK293F cells (UniProt P26842 20-260, limits assumed)
T1 construct: whole, on cells
T1 sequence (looked up): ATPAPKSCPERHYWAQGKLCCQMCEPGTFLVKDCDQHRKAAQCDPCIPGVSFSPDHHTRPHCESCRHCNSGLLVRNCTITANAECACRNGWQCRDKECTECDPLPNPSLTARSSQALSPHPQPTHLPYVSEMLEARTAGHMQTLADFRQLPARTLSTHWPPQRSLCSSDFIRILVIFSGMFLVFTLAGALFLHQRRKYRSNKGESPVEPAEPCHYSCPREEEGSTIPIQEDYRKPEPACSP
Protocol: (§1) The selectivity of antibodies for CD137 was evaluated using flow cytometry analysis of their binding ability to members of TNFR superfamily. The TNFRSF receptors including CD137, OX40, CD40, GITR and CD27 were transiently overexpressed on the surface of HEK293F cells. Transfected cells were washed in pre-chilled staining buffer (PBS supplemented with 2% FBS), then incubated with 100 nM test antibodies for 1 hr on ice. […] Samples were washed once with staining buffer prior to analysis by flow cytometry.

[2] = biological target: T2, CD40 overexpressed on HEK293F cells (UniProt P25942 21-277, limits assumed)
T2 construct: whole, on cells
Protocol: as §1

[3] = biological target: T3, OX40 overexpressed on HEK293F cells (UniProt P43489 29-277, limits assumed)
T3 construct: whole, on cells
T3 sequence (looked up): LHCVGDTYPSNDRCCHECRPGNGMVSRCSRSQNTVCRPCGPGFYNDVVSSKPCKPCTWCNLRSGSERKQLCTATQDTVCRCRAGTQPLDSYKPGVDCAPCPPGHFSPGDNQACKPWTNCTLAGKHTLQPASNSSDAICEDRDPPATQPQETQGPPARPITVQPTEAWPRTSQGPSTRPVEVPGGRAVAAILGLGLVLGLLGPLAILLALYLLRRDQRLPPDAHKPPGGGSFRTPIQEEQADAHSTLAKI
Protocol: as §1

[4] = biological target: T4, GITR overexpressed on HEK293F cells (UniProt Q9Y5U5 26-241, limits assumed)
T4 construct: whole, on cells
T4 sequence (looked up): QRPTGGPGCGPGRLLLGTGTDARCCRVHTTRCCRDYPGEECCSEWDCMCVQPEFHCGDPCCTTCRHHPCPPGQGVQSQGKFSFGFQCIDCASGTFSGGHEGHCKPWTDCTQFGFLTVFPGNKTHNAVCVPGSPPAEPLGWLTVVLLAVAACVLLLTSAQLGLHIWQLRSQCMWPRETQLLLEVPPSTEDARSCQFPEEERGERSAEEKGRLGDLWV
Protocol: as §1

T2 sequence (P25942 21-277 limits assumed): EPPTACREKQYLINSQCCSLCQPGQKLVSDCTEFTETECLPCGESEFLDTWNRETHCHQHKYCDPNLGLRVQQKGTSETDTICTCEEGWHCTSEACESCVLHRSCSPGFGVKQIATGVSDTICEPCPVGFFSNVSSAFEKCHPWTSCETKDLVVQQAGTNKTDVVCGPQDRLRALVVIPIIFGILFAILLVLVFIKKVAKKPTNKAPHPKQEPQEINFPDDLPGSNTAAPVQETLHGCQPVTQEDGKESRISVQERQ

B1: AG10059 (antibody, human IgG4 S228P, kappa, V domains shown)
VH: EVQLVESGGGLVQPGGSLRLSCAASGYSITSGHYWAWIRQAPGKGLEWVSSISGYGSTTYYADSVKGRFTISRDNSKNTLYLQLNSLRAEDTAVYYCARGGSDAVLGDWFAYWGQGTLVTVSS
VL: DIQLTQSPSSLSASVGDRVTITCRASQGIGSFLAWYQQKPGKAPKLLIYDASNLETGVPSRFSGSGSGTDFTLTISSLQPEDFATYYCQQGYYLWTFGQGTKVEIKR
[1]
  binding result: no binding (tested: 100 nM (text paragraph 226))
[2]
  binding result: no binding (tested: 100 nM (text paragraph 226))
[3]
  binding result: no binding (tested: 100 nM (text paragraph 226))
[4]
  binding result: no binding (tested: 100 nM (text paragraph 226))
